Assay results reported in patent US20090181003A1, “Regulation of S6 Kinsase Protein Activity and Related Methods” (priority 2005, published 2009).

What was measured:
S6K2 = target: T1, S6K2 (Homo sapiens, UniProt Q9UBS0); assay: In vitro GST pulldown of p300 GST-fusion fragments with recombinant S6K2; format: binding; settings: GST fusion proteins on glutathione beads, highly purified recombinant S6K2
T1 construct: made in house; GST-p300 fragments: bacteria
Description: In FIG. 1A, S6K1 and S6K2 were immunoprecipitated from MCF-7 cells using polyclonal antibodies or pre-immune serum control. Co-immunoprecipitated p300 was detected by western blotting with specific antibody. In FIG. 1B, 293 cells were cotransfected with either EE-S6K1 and Gal4-p300 or empty vector and Gal4-p300. S6K1 was immunoprecipitated using anti-EE antibody and associated p300 was detected by western blotting with anti-Gal4 antibody. Input: approximately ten percent of soluble lysate. In FIG. 1C, NIH-3T3 cells were transfected with empty vector or EE-S6K2. Anti-EE immunoprecipitates were subjected to western blotting with anti-p300 antibody. Input: approximately one percent of soluble lysate. […] Endogenous S6K1 and S6K2 were immunoprecipitated from MCF-7 cells using polyclonal antibodies. Associated P/CAF was detected by western blotting with polyclonal antibodies (Upstate). In FIG. 1E, the full length p300 was used to produce several GST-fusion fragments as shown (Hasan et al. (2001) Mol. Cell. 7, 1221-1231). Expressed fusion proteins were coupled to glutathione beads and used in an in vitro GST pulldown assay with recombinant S6K2. After extensive washing, bound S6K2 was detected by western blotting. […]

recombinant S6K1 = assay: In vitro acetylation with 14C labelled acetyl coenzyme A, S6K1; format: biochemical; settings: 1 μg recombinant S6K1, HAT buffer with 14C AcCoA
Description: (§1) In FIG. 2A, recombinant S6 kinases were acetylated in vitro using the purified acetyltransferase domain of p300 or full length PCAF and ^14C-labelled acetyl CoA. Proteins were resolved by SDS-PAGE and acetylated proteins were analysed by phosphorimaging (Bio-rad). In FIG. 2B, recombinant S6K2 or GST were subject to in vitro acetylation reactions with p300 and 14C AcCoA. Recombinant PKB/Akt, PKCa, PDK1 and PI3K (p85a/p110a) were purified using baculovirus expression system. In vitro acetylation assay was carried out as previously described. In FIG. 2D, HEK 293 cells were transfected with S6 kinases in the absence or presence of Gal4-p300 as shown. Cells were treated with medium containing either solvent control or TSA to a final concentration of 660 nM for twelve hours prior to harvesting. Recombinant S6 kinases were immunoprecipitated using the EE-antibody and acetylated S6 kinase was detected by western blotting with polyclonal acetylated lysine antibodies (Upstate). The level of immunoprecipitated S6K1 and S6K2 was analysed by reprobing the membranes with specific antibodies. The expression of Gal4-p300 was tested in total lysates using anti-Gal4 antibodies.
(§2) Since S6Ks can interact with a region within, or adjacent to the acetyltransferase domain of p300 we hypothesized that they may in fact be targeted by its enzymatic activity. […] We detected weak, but reproducible acetylation of PKCa.

recombinant S6K2 = assay: In vitro acetylation with 14C labelled acetyl coenzyme A, S6K2; format: biochemical; settings: 1 μg recombinant S6K2, HAT buffer with 14C AcCoA
Description: as §1, §2

T1 sequence (Q9UBS0 with tags, fused parts or gaps A420V): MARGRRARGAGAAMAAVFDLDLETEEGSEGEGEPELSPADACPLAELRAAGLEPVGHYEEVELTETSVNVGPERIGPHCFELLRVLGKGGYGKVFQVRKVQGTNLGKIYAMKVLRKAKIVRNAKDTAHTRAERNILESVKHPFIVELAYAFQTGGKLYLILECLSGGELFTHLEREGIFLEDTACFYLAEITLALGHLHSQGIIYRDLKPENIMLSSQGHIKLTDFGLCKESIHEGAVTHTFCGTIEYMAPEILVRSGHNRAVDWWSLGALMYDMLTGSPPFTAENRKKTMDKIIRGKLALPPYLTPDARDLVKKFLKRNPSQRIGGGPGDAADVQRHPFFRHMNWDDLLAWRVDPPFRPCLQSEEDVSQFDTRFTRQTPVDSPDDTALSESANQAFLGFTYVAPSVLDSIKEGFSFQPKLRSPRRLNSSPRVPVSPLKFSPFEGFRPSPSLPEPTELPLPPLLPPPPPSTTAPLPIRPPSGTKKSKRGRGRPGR

B1: p300 domain 4: active domain of p300 acetyltransferase, amino acid 1,459 to 1,892 (SEQ ID NO: 6), contains part of the acetyltransferase domain (protein, listed as Homo sapiens)
chain: KPKRLQEWYKKMLDKAVSERIVHDYKDIFKQATEDRLTSAKELPYFEGDFWPNVLEESIKELEQEEEERKREENTSNESTDVTKGDSKNAKKKNNKKTSKNKSSLSRGNKKKPGMPNVSNDLSQKLYATMEKHKEVFFVIRLIAGPAANSLPPIVDPDPLIPCDLMDGRDAFLTLARDKHLEFSSLRRAQWSTMCMLVELHTQSQDRFVYTCNECKHHVETRWHCTVCEDYDLCITCYNTKNHDHKMEKLGLGLDDESNNQQAAATQSPGDSRRLSIQRCIQSLVHACQCRNANCSLPSCQKMKRVVQHTKGCKRKTNGGCPICKQLIALCCYHAKHCQENKCPVPFCLNIKQKLRQQQLQHRLQQAQMLRRRMASMQRTGVVGQQQGLPSPTPATPTTPTGQQPTTPQTPQPTSQPQPTPPNSMPPYLPRTQA
modifications: GST fusion partner
binding of S6K2 to p300 domains (S6K2): selective binding
acetylation of S6K1 (14C acetyl incorporation) (recombinant S6K1): acetyl groups were indeed incorporated
acetylation of S6K2 (14C acetyl incorporation) (recombinant S6K2): acetyl groups were indeed incorporated
